# Data taken from IntAct's records for PubMed 14685270.
# B1: Eukaryotic translation initiation factor 4E1 (Drosophila melanogaster (Fruit fly)), P48598 (parent)
# chain: MQSDFHRMKNFANPKSMFKTSAPSTEQGRPEPPTSAAAPAEAKDVKPKEDPQETGEPAGNTATTTAPAGDDAVRTEHLYKHPLMNVWTLWYLENDRSKSWEDMQNEITSFDTVEDFWSLYNHIKPPSEIKLGSDYSLFKKNIRPMWEDAANKQGGRWVITLNKSSKTDLDNLWLDVLLCLIGEAFDHSDQICGAVINIRGKSNKISIWTADGNNEEAALEIGHKLRDALRLGRNNSLQYQLHKDTMVKQGSNVKSIYTL
# partner: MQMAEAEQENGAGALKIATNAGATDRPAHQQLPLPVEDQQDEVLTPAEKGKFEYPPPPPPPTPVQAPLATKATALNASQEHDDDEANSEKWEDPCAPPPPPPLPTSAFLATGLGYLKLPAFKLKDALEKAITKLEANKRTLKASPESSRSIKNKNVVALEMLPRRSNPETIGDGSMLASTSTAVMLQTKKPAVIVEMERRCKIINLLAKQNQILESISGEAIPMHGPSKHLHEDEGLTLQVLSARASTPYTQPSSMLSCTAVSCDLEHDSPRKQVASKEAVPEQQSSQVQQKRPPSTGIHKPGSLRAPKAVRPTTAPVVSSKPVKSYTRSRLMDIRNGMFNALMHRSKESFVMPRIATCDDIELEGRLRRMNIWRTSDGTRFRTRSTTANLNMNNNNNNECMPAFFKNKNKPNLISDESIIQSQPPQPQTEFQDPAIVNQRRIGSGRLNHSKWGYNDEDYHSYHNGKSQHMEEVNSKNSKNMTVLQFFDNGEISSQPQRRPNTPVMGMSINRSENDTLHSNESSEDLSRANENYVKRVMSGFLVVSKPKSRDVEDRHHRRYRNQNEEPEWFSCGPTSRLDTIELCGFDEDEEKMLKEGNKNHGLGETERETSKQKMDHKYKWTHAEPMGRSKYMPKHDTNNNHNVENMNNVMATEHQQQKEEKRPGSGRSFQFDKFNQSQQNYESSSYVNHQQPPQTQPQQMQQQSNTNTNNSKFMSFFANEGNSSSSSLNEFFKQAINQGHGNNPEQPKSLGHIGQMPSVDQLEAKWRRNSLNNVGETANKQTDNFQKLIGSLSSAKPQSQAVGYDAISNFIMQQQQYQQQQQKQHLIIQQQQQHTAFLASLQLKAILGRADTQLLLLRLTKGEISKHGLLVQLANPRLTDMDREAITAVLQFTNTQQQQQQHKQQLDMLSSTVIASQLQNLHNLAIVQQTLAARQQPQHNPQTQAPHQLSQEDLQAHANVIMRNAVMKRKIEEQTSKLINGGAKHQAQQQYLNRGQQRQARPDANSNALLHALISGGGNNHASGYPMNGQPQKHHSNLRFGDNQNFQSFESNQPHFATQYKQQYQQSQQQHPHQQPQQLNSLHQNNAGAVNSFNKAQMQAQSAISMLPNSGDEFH
# B2: Protein cup (Drosophila melanogaster (Fruit fly)), Q9VMA3 (parent)
# chain: B1 partner
# partner: B1 chain
# Variants of: B1
# Settings: with cup_drome cup, Q9VMA3
row,effect of a mutation on the interaction,Variant
1,disrupting interaction,MQSDFHRMKNFANPKSMFKTSAPSTEQGRPEPPTSAAAPAEAKDVKPKEDPQETGEPAGNTATTTAPAGDDAVRTEHLYKHPLMNVWTLWYLENDRSKSWEDMQNAITSFDTVEDFWSLYNHIKPPSEIKLGSDYSLFKKNIRPMWEDAANKQGGRWVITLNKSSKTDLDNLWLDVLLCLIGEAFDHSDQICGAVINIRGKSNKISIWTADGNNEEAALEIGHKLRDALRLGRNNSLQYQLHKDTMVKQGSNVKSIYTL [E106A]

# Variants of: B2
# Settings: with if4e_drome eIF4E1, P48598
row,effect of a mutation on the interaction,Variant
1,disrupting interaction,Y327A;L364A;L368A
2,decreasing interaction,Y327A

# Variants of: B2
# Settings: with if4e_drome eIF4E1, P48598
# Remark: another data set of the same source
row,effect of a mutation on the interaction,Variant
1,disrupting interaction,Y327A
2,disrupting interaction,L364A;L368A
